Measurements reported in patent US20230248800A1 (PHARMAIN, published 2023).
Like-named read-outs stand apart in the source and are kept apart here.

Assays:
human V1a receptor [1] = target: T1, human V1a receptor (human, UniProt P37288 1-418); test: cell-based or functional assay
human V1a receptor [2] = target: T1, human V1a receptor; test: cell-based or functional assay; remark: listed apart in the source

T1 sequence (P37288 whole entry): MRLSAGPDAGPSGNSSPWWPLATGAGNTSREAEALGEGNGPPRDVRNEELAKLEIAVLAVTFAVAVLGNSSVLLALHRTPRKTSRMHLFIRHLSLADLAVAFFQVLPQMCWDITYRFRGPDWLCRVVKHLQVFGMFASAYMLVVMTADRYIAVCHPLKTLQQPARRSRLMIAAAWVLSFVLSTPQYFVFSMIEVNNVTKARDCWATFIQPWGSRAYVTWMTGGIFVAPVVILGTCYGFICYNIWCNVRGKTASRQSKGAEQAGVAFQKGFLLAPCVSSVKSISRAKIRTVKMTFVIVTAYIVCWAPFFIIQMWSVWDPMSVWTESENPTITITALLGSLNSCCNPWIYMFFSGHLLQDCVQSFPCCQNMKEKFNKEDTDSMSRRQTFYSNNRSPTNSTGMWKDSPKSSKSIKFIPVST

B1: Mpa-Tyr-Phe-Hgn-Asn-Cys-Pro-Lys-Gly-NH2 [SEQ ID NO. 25] (peptide)
peptide: XFXNCPKG
modifications: Mpa (mercaptopropionic acid) at position 1, disulfide bond between Mpa and Cys; Hgn (homoglutamine) at position 4; C-terminal amide
Estimated V1a EC50 (calcium flux) (human V1a receptor [1]): 5.2 nM | V1a Highest agonist effect (% of AVP) (human V1a receptor [1]): 42.8 % of AVP

B2: Mpa-Tyr-Phe-Hgn-Asn-Cys-Pro-dLys-Gly-NH2 (note: dLys = D-Lys) [SEQ ID NO. 18] (peptide)
peptide: XFXNCPKG
modifications: Mpa at position 1, disulfide bond between Mpa and Cys; Hgn at position 4; D-Lys at position 8; C-terminal amide
Estimated V1a EC50 (calcium flux) (human V1a receptor [1]): > 10000 nM | V1a Highest agonist effect (% of AVP) (human V1a receptor [1]): 0.2 % of AVP

B3: Mpa-Tyr-Phe-Hgn-Asn-Cys-Pro-Lys(X)a-Gly-NH2; (X)a = (Gly)9-Ac [SEQ ID NO. 26] (peptide)
peptide: XFXNCPXG
modifications: Mpa at position 1, disulfide bond between Mpa and Cys; Hgn at position 4; (Gly)9-Ac on the side chain of Lys 8; C-terminal amide
Estimated V1a EC50 (calcium flux) (human V1a receptor [1]): > 10000 nM | V1a Highest agonist effect (% of AVP) (human V1a receptor [1]): 40 % of AVP

B4: Mpa-Tyr-Phe-Hgn-Asn-Cys-Pro-Lys(12-aminododecanoic acid)-Gly-NH2 [SEQ ID NO. 19] (peptide)
peptide: XFXNCPXG
modifications: Mpa at position 1, disulfide bond between Mpa and Cys; Hgn at position 4; 12-aminododecanoic acid on the side chain of Lys 8; C-terminal amide
Estimated V1a EC50 (calcium flux) (human V1a receptor [1]): > 10000 nM | V1a Highest agonist effect (% of AVP) (human V1a receptor [1]): 2.5 % of AVP

B5: Mpa-Tyr-Phe-Hgn-Asn-Cys-Pro-Dap-Gly-NH2 [SEQ ID NO. 17] (peptide)
peptide: XFXNCPXG
modifications: Mpa at position 1, disulfide bond between Mpa and Cys; Hgn at position 4; Dap at position 8; C-terminal amide
Estimated V1a EC50 (calcium flux) (human V1a receptor [1]): > 10000 nM | V1a Highest agonist effect (% of AVP) (human V1a receptor [1]): 3.5 % of AVP

B6: Mpa-Tyr-Phe-Hgn-Asn-Cys-Pro-Lys(X)a-Gly-NH2; (X)a = Dap [SEQ ID NO. 29] (peptide)
peptide: XFXNCPXG
modifications: Mpa at position 1, disulfide bond between Mpa and Cys; Hgn at position 4; Dap on the side chain of Lys 8; C-terminal amide
Estimated V1a EC50 (calcium flux) (human V1a receptor [1]): 1340 nM | V1a Highest agonist effect (% of AVP) (human V1a receptor [1]): 7.5 % of AVP

B7: Mpa-Tyr-Phe-Hgn-Asn-Cys-Pro-Lys(X)a-Gly-NH2; (X)a = Lauric acid [SEQ ID NO. 27] (peptide)
peptide: XFXNCPXG
modifications: Mpa at position 1, disulfide bond between Mpa and Cys; Hgn at position 4; lauric acid on the side chain of Lys 8; C-terminal amide
Estimated V1a EC50 (calcium flux) (human V1a receptor [1]): > 10000 nM

B8: Mpa-Tyr-Phe-Gln-Asn-Cys-Pro-Lys(X)a-Gly-NH2; (X)a = (Gly)9 [SEQ ID NO. 23] (peptide)
peptide: XFQNCPXG
modifications: Mpa at position 1, disulfide bond between Mpa and Cys; (Gly)9 on the side chain of Lys 8; C-terminal amide
Estimated V1a EC50 (calcium flux) (human V1a receptor [2]): 12.6 nM

B9: Mpa-Tyr-Phe-Hgn-Asn-Cys-Pro-Lys(X)a-Gly-NH2; (X)a = Ac [SEQ ID NO. 28] (peptide)
peptide: XFXNCPXG
modifications: Mpa at position 1, disulfide bond between Mpa and Cys; Hgn at position 4; acetyl (Ac) on the side chain of Lys 8; C-terminal amide
Estimated V1a EC50 (calcium flux) (human V1a receptor [1]): > 10000 nM | V1a Highest agonist effect (% of AVP) (human V1a receptor [1]): 30 % of AVP

B10: Mpa-Tyr-Phe-Gln-Asn-Cys-Pro-Lys(X)a-Gly-NH2; (X)a = (Gly)6 [SEQ ID NO. 20] (peptide)
peptide: XFQNCPXG
modifications: Mpa at position 1, disulfide bond between Mpa and Cys; (Gly)6 on the side chain of Lys 8; C-terminal amide
Estimated V1a EC50 (calcium flux) (human V1a receptor [2]): 27.3 nM
